Values quoted from earlier work in patent publication US20010028895A1, “Methods of treating alzheimer's disease” (priority 2000, published 2001).

Assays:
[1] = among the eight 22-mer domains of apo A-I
[2] = among the eight 22-mer domains of apo A-I; remark: listed apart in the source
[3] = among the eight 22-mer domains of apo A-I; remark: listed apart in the source
[4] = among the eight 22-mer domains of apo A-I; remark: listed apart in the source

In the case of “44-65: synthesized N-terminal 22-mer amphipathic domain of human apo A-I, residues 44-65 (LKLLDNWDSVTSTFSKLREQLG; UniProt P02647 68-89, looked up, fragment)”, the “clarifying multilamellar vesicles of DMPC” value [1] is given as “effective”, the “partition coefficient into POPC liposomes” value [2] is given as “highest partition coefficient” and the “exclusion pressure for penetration into egg yolk phosphatidylcholine monolayer” value [3] is given as “highest exclusion pressure”. The “reduction in the enthalpy of the gel-to-liquid crystalline phase transition of DMPC MLVs” value [4] was “greatest reduction”.

For “220-241: synthesized C-terminal 22-mer amphipathic domain of human apo A-I, residues 220-241 (PVLESFKVSFLSALEEYTKKLN; UniProt P02647 244-265, looked up, fragment)”, the “clarifying multilamellar vesicles of DMPC” value [1] is listed as “effective”, the “partition coefficient into POPC liposomes” value [2] is listed as “highest partition coefficient” and the “exclusion pressure for penetration into egg yolk phosphatidylcholine monolayer” value [3] is listed as “highest exclusion pressure”. For the same substance, the “reduction in the enthalpy of the gel-to-liquid crystalline phase transition of DMPC MLVs” value [4] was “greatest reduction”.
